This note sets out measurements from article PMC6034166.

This assay addresses ethylenediamine-N,N′-disuccinic acid lyase (EDDS lyase) from Chelativorans sp. BNC1 (Chelativorans sp. BNC1). The assay is described as follows: SEC + other: dynamic light scattering.

Consider “ethylenediamine-N,N′-disuccinic acid lyase (EDDS lyase) from Chelativorans sp. BNC1 (enzyme)”, for which the stoichiometry N amounted to 4.
